From US12371675B2, “Process and microorganism for synthesis of adipic acid from carboxylic acids” (THE GOVERNING COUNCIL OF THE UNIVERSITY OF TORONTO, priority 2015, dated 2025) come the findings set out here.

Substrate in series [1]: O=CCCCCC=O
The series can be described thus: AT kinetics, coupled with alanine and glutamate dehydrogenases. The note with it: other: amino-donor Ala/Glu; pH 7.5. It counts as biochemical, Sinorhizobium meliloti. The method, then: 28 PLP-dependent aminotransferases (from the classes I, II and III) were cloned and overexpressed in E. coli (Table 6). Enzymes were purified using affinity chromatography on a Ni-NTA resin and were screened for […] activity towards adipaldehyde using alanine and glutamate as amino-donors. Enzyme activity was measured spectrophotometrically using a coupled reaction with the NADPH/NADH-dependent alanine and glutamate dehydrogenases in the presence of excess of ammonium chloride.
Reaction was monitored by following the decrease in absorbance of NAD(P)H to NAD(P)+ at 340 nm (ε340 nm=6,220/M·cm). Coupled enzymes can aminate pyruvate/ketoglutarate produced by ATs in excess of NH4Cl.

Substrate in series [2]: O=C(O)CCCCCO
Description: purified protein, by the assay type. The note with it: other: ATP/NADPH dependent reduction; pH 7.5.

B1: Sinorhizobium meliloti aminotransferase SM2011_b20379, SEQ ID NO: 59 (Sinorhizobium meliloti 1021) (protein)
chain: MNDRPNSLHALDKQSLVHPYTNLAVHQETGPHVITGGDGIYVVDDEGKRYIEGLAGLFCAGLGFSEQRLVEAATRQLKTMPFYHSFAHKSTEPGIRLAEKLLSIAPVPMSKVFFAGSGSEANDTAIKLIWYYNNALGRPEKKKIISRRKAYHGVTVATASLTGLPFNHRDFDLPIANILHTDCPHYWRFAETGETEEDFATRMANNLEAIILEEGPETIAAFFAEPVMVSGGVITPPKTYFEKVQAVLRKYDILLIADEVICGFGRTGNMFGSETYGLKPDMISCAKQLSAAYMPISALMINAKIADALVDQSRKIGTFSHGFTYGGHPVAAAVALEALTIYEEIDIVGHVRSVAPAFQDRVRKLGEHPLIGEARGVGLVAGLEFVKDKATRENFPPAWQVANQAGKFATARGVLTRGLGDMVSLCPAMIIDDEQIDDLMTRMGLALDDTLAWARAQGHVG
The Km is the substrate concentration at which the rate is half of its maximum. For orientation: kcat means the number of substrate molecules converted per active site and unit of time at saturation. As usually defined, the kcat/Km is the second-order rate constant that governs catalysis at low substrate concentration. As for B1, in series [1], the Km is given as 0.32 ± 0.10 mM, the turnover number (kcat) was determined as 0.26 ± 0.05 s⁻¹ and the kcat/Km result is on record as “(8.08 ± 1.52) × ×10^2 M^−1 · s^−1”.

B2: Mycobacterium smegmatis carboxylate reductase MSMEG_5739, SEQ ID NO: 37 (Mycolicibacterium smegmatis MC2 155) (protein)
chain: MTSDVHDATDGVTETALDDEQSTRRIAELYATDPEFAAAAPLPAVVDAAHKPGLRLAEILQTLFTGYGDRPALGYRARELATDEGGRTVTRLLPRFDTLTYAQVWSRVQAVAAALRHNFAQPIYPGDAVATIGFASPDYLTLDLVCAYLGLVSVPLQHNAPVSRLAPILAEVEPRILTVSAEYLDLAVESVRDVNSVSQLVVFDHHPEVDDHRDALARAREQLAGKGIAVTTLDAIADEGAGLPAEPIYTADHDQRLAMILYTSGSTGAPKGAMYTEAMVARLWTMSFITGDPTPVINVNFMPLNHLGGRIPISTAVQNGGTSYFVPESDMSTLFEDLALVRPTELGLVPRVADMLYQHHLATVDRLVTQGADELTAEKQAGAELREQVLGGRVITGFVSTAPLAAEMRAFLDITLGAHIVDGYGLTETGAVTRDGVIVRPPVIDYKLIDVPELGYFSTDKPYPRGELLVRSQTLTPGYYKRPEVTASVFDRDGYYHTGDVMAETAPDHLVYVDRRNNVLKLAQGEFVAVANLEAVFSGAALVRQIFVYGNSERSFLLAVVVPTPEALEQYDPAALKAALADSLQRTARDAELQSYEVPADFIVETEPFSAANGLLSGVGKLLRPNLKDRYGQRLEQMYADIAATQANQLRELRRAAATQPVIDTLTQAAATILGTGSEVASDAHFTDLGGDSLSALTLSNLLSDFFGFEVPVGTIVNPATNLAQLAQHIEAQRTAGDRRPSFTTVHGADATEIRASELTLDKFIDAETLRAAPGLPKVTTEPRTVLLSGANGWLGRFLTLQWLERLAPVGGTLITIVRGRDDAAARARLTQAYDTDPELSRRFAELADRHLRVVAGDIGDPNLGLTPEIWHRLAAEVDLVVHPAALVNHVLPYRQLFGPNVVGTAEVIKLALTERIKPVTYLSTVSVAMGIPDFEEDGDIRTVSPVRPLDGGYANGYGNSKWAGEVLLREAHDLCGLPVATFRSDMILAHPRYRGQVNVPDMFTRLLLSLLITGVAPRSFYIGDGERPRAHYPGLTVDFVAEAVTTLGAQQREGYVSYDVMNPHDDGISLDVFVDWLIRAGHPIDRVDDYDDWVRRFETALTALPEKRRAQTVLPLLHAFRAPQAPLRGAPEPTEVFHAAVRTAKVGPGDIPHLDEALIDKYIRDLREFGLI
Turning to B2, in series [2], the Km stood at 8.33 ± 0.73 mM, the kcat is 1.21 ± 0.04 s⁻¹ and the kcat/Km came out at 145 ± 4.4 M⁻¹ s⁻¹.

B3: Mycobacterium smegmatis carboxylate reductase MSMEG_2956, SEQ ID NO: 70 (Mycolicibacterium smegmatis MC2 155) (protein)
chain: MTIETREDRFNRRIDHLFETDPQFAAARPDEAISAAAADPELRLPAAVKQILAGYADRPALGKRAVEFVTDEEGRTTAKLLPRFDTITYRQLAGRIQAVTNAWHNHPVNAGDRVAILGFTSVDYTTIDIALLELGAVSVPLQTSAPVAQLQPIVAETEPKVIASSVDFLADAVALVESGPAPSRLVVFDYSHEVDDQREAFEAAKGKLAGTGVVVETITDALDRGRSLADAPLYVPDEADPLTLLIYTSGSTGTPKGAMYPESKTATMWQAGSKARWDETLGVMPSITLNFMPMSHVMGRGILCSTLASGGTAYFAARSDLSTFLEDLALVRPTQLNFVPRIWDMLFQEYQSRLDNRRAEGSEDRAEAAVLEEVRTQLLGGRFVSALTGSAPISAEMKSWVEDLLDMHLLEGYGSTEAGAVFIDGQIQRPPVIDYKLVDVPDLGYFATDRPYPRGELLVKSEQMFPGYYKRPEITAEMFDEDGYYRTGDIVAELGPDHLEYLDRRNNVLKLSQGEFVTVSKLEAVFGDSPLVRQIYVYGNSARSYLLAVVVPTEEALSRWDGDELKSRISDSLQDAARAAGLQSYEIPRDFLVETTPFTLENGLLTGIRKLARPKLKAHYGERLEQLYTDLAEGQANELRELRRNGADRPVVETVSRAAVALLGASVTDLRSDAHFTDLGGDSLSALSFSNLLHEIFDVDVPVGVIVSPATDLAGVAAYIEGELRGSKRPTYASVHGRDATEVRARDLALGKFIDAKTLSAAPGLPRSGTEIRTVLLTGATGFLGRYLALEWLERMDLVDGKVICLVRARSDDEARARLDATFDTGDATLLEHYRALAADHLEVIAGDKGEADLGLDHDTWQRLADTVDLIVDPAALVNHVLPYSQMFGPNALGTAELIRIALTTTIKPYVYVSTIGVGQGISPEAFVEDADIREISATRRVDDSYANGYGNSKWAGEVLLREAHDWCGLPVSVFRCDMILADTTYSGQLNLPDMFTRLMLSLVATGIAPGSFYELDADGNRQRAHYDGLPVEFIAEAISTIGSQVTDGFETFHVMNPYDDGIGLDEYVDWLIEAGYPVHRVDDYATWLSRFETALRALPERQRQASLLPLLHNYQQPSPPVCGAMAPTDRFRAAVQDAKIGPDKDIPHVTADVIVKYISNLQMLGLL
Regarding B3, in series [2], the Michaelis constant (Km) came to 66.15 ± 9.48 mM, the turnover number (kcat) was found to be 2.32 ± 0.22 s⁻¹ and the specificity constant (kcat/Km) came to 35.1 ± 3.29 M⁻¹ s⁻¹.

B4: Sinorhizobium meliloti aminotransferase SM2011_c04388, SEQ ID NO: 58 (Sinorhizobium meliloti 1021) (protein)
chain: MNAHNKPNAPVLDSYWMPFTANRQFKAAPRLLAAAEGMHYTSVDGRTVLDGTAGLWCVNAGHGRRQIAAAVERQLSTMDFAPSFQMGHPIAFDFAERLAEIAPGPAGAKLDRVFFTGSGSESVDTALKMALAYQRSIGQGTRTRLIGRERGYHGVGFGGISVGGIVNNRRVFPQLPGSDHLRHTHDPAKNAFVKGQPEHGAELADDLERLVALHGAETIAACIVEPVAGSTGVLIPPKGYLERLRAICDKHGILLIFDEVITGFGRLGAAFATDYFGVTPDIVTTAKGLTNGAIPMGAVFASRKVHDALMHGPEGQIELFHGYTYSGHPAACAAGIATLDIYRDEGLMTRAAEIEGDWHEAMHSMKGLPHVIDIRTIGLIAGIELQSRDGAPGARAYDVFVDCFERGLLIRVTGDIIAFSPPLIAEKQHFGEIVSILADALKRVK
B4: the Km in series [1] stood at 8.58 ± 3.34 mM.

B5: Mycobacterium smegmatis carboxylate reductase MSMEI_5586, SEQ ID NO: 35 (Mycolicibacterium smegmatis MC2 155) (protein)
chain: MHQLTVTGMNICEVQRLFPRMTSDVHDATDGVTETALDDEQSTRRIAELYATDPEFAAAAPLPAVVDAAHKPGLRLAEILQTLFTGYGDRPALGYRARELATDEGGRTVTRLLPRFDTLTYAQVWSRVQAVAAALRHNFAQPIYPGDAVATIGFASPDYLTLDLVCAYLGLVSVPLQHNAPVSRLAPILAEVEPRILTVSAEYLDLAVESVRDVNSVSQLVVFDHHPEVDDHRDALARAREQLAGKGIAVTTLDAIADEGAGLPAEPIYTADHDQRLAMILYTSGSTGAPKGAMYTEAMVARLWTMSFITGDPTPVINVNFMPLNHLGGRIPISTAVQNGGTSYFVPESDMSTLFEDLALVRPTELGLVPRVADMLYQHHLATVDRLVTQGADELTAEKQAGAELREQVLGGRVITGFVSTAPLAAEMRAFLDITLGAHIVDGYGLTETGAVTRDGVIVRPPVIDYKLIDVPELGYFSTDKPYPRGELLVRSQTLTPGYYKRPEVTASVFDRDGYYHTGDVMAETAPDHLVYVDRRNNVLKLAQGEFVAVANLEAVFSGAALVRQIFVYGNSERSFLLAVVVPTPEALEQYDPAALKAALADSLQRTARDAELQSYEVPADFIVETEPFSAANGLLSGVGKLLRPNLKDRYGQRLEQMYADIAATQANQLRELRRAAATQPVIDTLTQAAATILGTGSEVASDAHFTDLGGDSLSALTLSNLLSDFFGFEVPVGTIVNPATNLAQLAQHIEAQRTAGDRRPSFTTVHGADATEIRASELTLDKFIDAETLRAAPGLPKVTTEPRTVLLSGANGWLGRFLTLQWLERLAPVGGTLITIVRGRDDAAARARLTQAYDTDPELSRRFAELADRHLRVVAGDIGDPNLGLTPEIWHRLAAEVDLVVHPAALVNHVLPYRQLFGPNVVGTAEVIKLALTERIKPVTYLSTVSVAMGIPDFEEDGDIRTVSPVRPLDGGYANGYGNSKWAGEVLLREAHDLCGLPVATFRSDMILAHPRYRGQVNVPDMFTRLLLSLLITGVAPRSFYIGDGERPRAHYPGLTVDFVAEAVTTLGAQQREGYVSYDVMNPHDDGISLDVFVDWLIRAGHPIDRVDDYDDWVRRFETALTALPEKRRAQTVLPLLHAFRAPQAPLRGAPEPTEVFHAAVRTAKVGPGDIPHLDEALIDKYIRDLREFGLI
For B5, in series [2], the Km is listed as 16.2 ± 2.11 mM, the kcat came to 1.2 ± 0.07 s⁻¹ and the kcat/Km worked out at 74.2 ± 4.05 M⁻¹ s⁻¹.

B6: Sinorhizobium meliloti aminotransferase SM2011_b20423, SEQ ID NO: 60 (Sinorhizobium meliloti 1021) (protein)
chain: MLERSNELTAWDRDHFFHPSTHMGMHARGETPTRVIGGGEGVYITDISGKRSLDAFAGLYCVNVGYGRQKIADAIAEQAKNLAYYHAYVGHGTEASIRLSKMIIDRAPEGMSRVYFGLSGSDANETNIKLIWYYNNILGRPEKKKIISRWRGYHGSGVMTGSLTGLHLFHNAFDLPRAPILHTEAPYYFRRPDRSMSEEQFSQYCADKLEEMILAEGPDTVAAFIGEPILGTGGIVPPPKGYWEKIQAVLQKYDILLVADEVVTGFGRLGTMFGSDHYGIKPDLITIAKGLTSAYAPLSGTIVSDKLWQVLVKGSDELGAIGHGWTYSAHPICAAAGIANLELIDELGIVENAGSTGAYFRAELQKAVGDHRHVGEVRGDGLMAAIEFVEDRDDRAFFDPGRKVGPQVAAALLERGVIGRAMPQGDILGFAPPLCLTRDEADIVVKAAADTIQSVLGR
Take B6: in series [1], the Km is 2.64 ± 0.35 mM, the kcat was 0.28 ± 0.01 s⁻¹ and the kcat/Km result is “(1.05 ± 0.06) × ×10^2 M^−1 · s^−1”.
